Measured values taken from PMC8072984.

Legend:
[1] = biological target: sapC-PUMA chimera (saposin C linked to the BH3 domain of PUMA); test: NMR titration; [1H-15N]-SOFAST-HMQC at 298 K, 600 MHz; 15N-labelled chimera at 100 µM mixed with unlabeled Bcl-xL-ΔTM (stock 900 µM, pH 6.8) at chimera:Bcl-xL molar ratios 1:0, 1:0.5, 1:1, 1:2; 10% D2O; slow exchange, the upper limit of KD estimated from the chemical shift difference assuming diffusion-controlled kon
Bcl-xL (Homo sapiens) = Bcl-xL (Homo sapiens) (UniProt Q07817); test: isothermal titration calorimetry; conditions: cited from earlier work
Sequence of Bcl-xL (Homo sapiens) (Q07817 whole entry): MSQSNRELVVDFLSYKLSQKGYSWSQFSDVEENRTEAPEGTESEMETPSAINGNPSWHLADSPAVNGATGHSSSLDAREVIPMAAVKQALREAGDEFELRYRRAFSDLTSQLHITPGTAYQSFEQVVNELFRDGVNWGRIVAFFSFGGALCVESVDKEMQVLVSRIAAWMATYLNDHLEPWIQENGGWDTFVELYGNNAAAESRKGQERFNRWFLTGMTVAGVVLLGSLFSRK

Sequence of sapC-PUMA chimera (saposin C linked to the BH3 domain of PUMA) (P07602 other isoform, or with tags, fused parts or gaps mutant): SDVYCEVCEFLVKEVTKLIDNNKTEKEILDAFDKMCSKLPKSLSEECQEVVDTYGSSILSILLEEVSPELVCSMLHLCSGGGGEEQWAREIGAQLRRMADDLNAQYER
Sequence of PUMA BH3 (Q9BXH1 130-156): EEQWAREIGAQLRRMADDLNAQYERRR

| stoichiometry N [1] | Substance | Kd (Bcl-xL (Homo sapiens)) [nM] |
| --- | --- | --- |
| 1 | Human Bcl-xL-ΔTM (native amino acid sequence without the transmembrane domain) (domain or fragment) |  |
|  | PUMA BH3 (from UniProt Q9BXH1) | 3 |
